{"source": "paper PMC11225796", "test_in_all_cases": "cross-linking", "key": {"[1]": {"molecular_target": "MBP-Z(6His)"}, "[2]": {"molecular_target": "MBP-Z(6His)", "remark": "listed apart in the source"}, "[3]": {"molecular_target": "MBP-Z(6Tyr)"}, "[4]": {"molecular_target": "MBP-Z(6His)", "remark": "listed apart in the source"}, "[5]": {"molecular_target": "MBP-Z(6Tyr)", "remark": "listed apart in the source"}, "[6]": {"molecular_target": "MBP-Z(6Tyr)", "remark": "listed apart in the source"}, "[7]": {"molecular_target": "MBP-Z(6His)", "remark": "listed apart in the source"}, "[8]": {"molecular_target": "MBP-Z(6Tyr)", "remark": "listed apart in the source"}, "[9]": {"molecular_target": "MBP-Z(6His)", "remark": "listed apart in the source"}, "[10]": {"molecular_target": "MBP-Z(6Tyr)", "remark": "listed apart in the source"}}, "note": "Like-named read-outs stand apart in the source and are kept apart here."}
{"substance": "Zspa affibody with FSY at site 36, Afb(36FSY) (designed binder)", "values": [{"measurement": "cross-linking efficiency (day 0)", "setting": "[1]", "result": 60.2, "unit": "%"}, {"measurement": "cross-linking efficiency (day 1)", "setting": "[1]", "result": 47.7, "unit": "%"}, {"measurement": "cross-linking efficiency (day 3)", "setting": "[1]", "result": 27.5, "unit": "%"}, {"measurement": "cross-linking efficiency (day 5)", "setting": "[1]", "result": 17.9, "unit": "%"}]}
{"substance": "Zspa affibody with PFY at site 36, Afb(36PFY) (designed binder)", "values": [{"measurement": "cross-linking efficiency", "setting": "[2]", "result": 37.4, "unit": "%"}, {"measurement": "cross-linking efficiency", "setting": "[3]", "result": 26.8, "unit": "%"}, {"measurement": "cross-linking efficiency", "setting": "[4]", "result": 21.4, "unit": "%"}, {"measurement": "cross-linking efficiency", "setting": "[5]", "result": 5.3, "unit": "%"}, {"measurement": "cross-linking efficiency", "setting": "[1]", "result": 5, "unit": "%"}, {"measurement": "cross-linking efficiency (1 mM Na2SiO3)", "setting": "[1]", "result": 18.8, "unit": "%"}, {"measurement": "cross-linking efficiency (no Na2SiO3)", "setting": "[1]", "result": 36.9, "unit": "%"}, {"measurement": "cross-linking efficiency", "setting": "[6]", "result": 27.5, "unit": "%"}, {"measurement": "cross-linking efficiency (1 mM Na2SiO3)", "setting": "[6]", "result": 45.7, "unit": "%"}, {"measurement": "cross-linking efficiency (no Na2SiO3)", "setting": "[6]", "result": 24.7, "unit": "%"}, {"measurement": "cross-linking efficiency", "setting": "[7]", "result": 35.3, "unit": "%"}, {"measurement": "cross-linking efficiency", "setting": "[8]", "result": 33.7, "unit": "%"}, {"measurement": "cross-linking efficiency", "setting": "[9]", "result": 21.3, "unit": "%"}, {"measurement": "cross-linking efficiency", "setting": "[10]", "result": 44.5, "unit": "%"}]}
